This series is described as follows: self-splicing fitness, log relative to wild type (ln ratio); higher = more splicing; Tetrahymena group I intron in knt gene, E. coli kanamycin selection, DiMSum; sequences stand for … in CUCUCU…GGAGGGAAAAGUUAUCAGGCAUGCACCUGGUAGCUAGUCUUUAAACCAAUAGAUUGCAUCGGUUUAAAAGGCAAGACCGUCAAAUUGCGGGAAAGGGGUCAACAGCCGUUCAGUACCAAGUCUCAGGGGAAACUUUGAGAUGGCCUUGCAAAGGGUAUGGUAAUAAGCUGACGGACAUGGUCCUAACCACGCAGCCAAGUCCUAAGUCAACAGAUCUUCUGUUGAUAUGGAUGCAGUUCACAGACUAAAUGUCGGUCGGGGAAGAUGUAUUCUUCUCAUAAGAUAUAGUCGGACCUCUCCUUAAUGGGAGCUAGCGGAUGAAGUGAUGCAACACUGGAGCCGCUGGGAACUAAUUUGUAUGCGAAAGUAUAUUGAUUAGUUUUGGAGUACUCGUGGUCG
Put shortly: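 Library with all eight P1ex-region intron nucleotides randomised, intron inside the knt kanamycin-resistance gene on pET-22b(+), in E. coli BL21(DE3). Cells grew overnight at 37°C or 30°C on LB agar with or without 25 μg/mL kanamycin (plus 100 μg/mL carbenicillin, 50 μM IPTG, 0.2% rhamnose), in six replicate transformations. Pooled colonies were amplicon-sequenced on Illumina HiSeq 2500. DiMSum fitness is the error-weighted combination of wild-type-normalised replicate fold changes, kanamycin versus none.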

Here are results for 33 sequences from the supplement of paper PMC7877785.

± gives the uncertainty stated by the source.

Take GACUAGCAAUAUUACGACAG: the “self-splicing fitness (ln)” value was -2.92 ± 0.14 (30 °C) and -2.4 ± 0.2 (37 °C).

Turning to UUCGAGCAAUAUUACGGGCC, the “self-splicing fitness (ln)” value runs as follows: (30 °C) -3.79 ± 0.32; (37 °C) -2.21 ± 0.33.

UUAUAGCAAUAUUACGGUUC: the “self-splicing fitness (ln)” value reads like this: (30 °C) -2.77 ± 0.23; (37 °C) -2.16 ± 0.25.

As to UUCAAGCAAUAUUACGCGAG, the “self-splicing fitness (ln)” value is -2.19 ± 0.096 (30 °C) and -1.33 ± 0.1 (37 °C).

UGCCAGCAAUAUUACGACAC: the “self-splicing fitness (ln)” value was -2.55 ± 0.35 (30 °C) and -2.68 ± 0.38 (37 °C).

Turning to CCUUAGCAAUAUUACGAUAG, the “self-splicing fitness (ln)” value reads like this: (30 °C) -2.77 ± 0.12; (37 °C) -2.37 ± 0.18.

Regarding AUAUAGCAAUAUUACGAGAU, the “self-splicing fitness (ln)” value was -3.01 ± 0.14 (30 °C) and -0.91 ± 0.13 (37 °C).

UCAGAGCAAUAUUACGGCUU: the “self-splicing fitness (ln)” value reads like this: (30 °C) -3.38 ± 0.34; (37 °C) -2.19 ± 0.35.

On to CGCAAGCAAUAUUACGAAAU, for which the “self-splicing fitness (ln)” value was -3.48 ± 0.21 (30 °C) and -1.86 ± 0.18 (37 °C).

For the sequence CGGCAGCAAUAUUACGAGUG, the “self-splicing fitness (ln)” value reads like this: (30 °C) -1.03 ± 0.086; (37 °C) 0.319 ± 0.1.

Turning to GCGUAGCAAUAUUACGGGGC, the “self-splicing fitness (ln)” value was -3.47 ± 0.21 (30 °C) and -2.67 ± 0.24 (37 °C).

Regarding GACUAGCAAUAUUACGGCAG, the “self-splicing fitness (ln)” value was -2.84 ± 0.14 (30 °C) and -2.49 ± 0.23 (37 °C).

With AAUUAGCAAUAUUACGGCCU, the “self-splicing fitness (ln)” value by setting is: (30 °C) -0.324 ± 0.097; (37 °C) 0.38 ± 0.16.

For GUACAGCAAUAUUACGUAGA, the “self-splicing fitness (ln)” value reads like this: (30 °C) -2.65 ± 0.11; (37 °C) -1.35 ± 0.14.

As to UACAAGCAAUAUUACGCGCU, the “self-splicing fitness (ln)” value is -1.39 ± 0.12 (30 °C) and -0.322 ± 0.11 (37 °C).

For the sequence CGUUAGCAAUAUUACGUGAU, the “self-splicing fitness (ln)” value runs as follows: (30 °C) -3.16 ± 0.24; (37 °C) -2.45 ± 0.2.

As to ACCAAGCAAUAUUACGUGCA, the “self-splicing fitness (ln)” value is -0.837 ± 0.065 (30 °C) and -0.466 ± 0.074 (37 °C).

Take CGACAGCAAUAUUACGUCAA: the “self-splicing fitness (ln)” value reads like this: (30 °C) -1.99 ± 0.14; (37 °C) -1.21 ± 0.12.

As for CGGAAGCAAUAUUACGCUGC, the “self-splicing fitness (ln)” value (30 °C) was -2.35 ± 0.41 and the “self-splicing fitness (ln)” value (37 °C) is -1.78 ± 0.2.

As for UCCGAGCAAUAUUACGAGGG, the “self-splicing fitness (ln)” value is, setting by setting: (30 °C) -4.27 ± 0.25; (37 °C) -1.93 ± 0.22.

For UAGUAGCAAUAUUACGGUAU, the “self-splicing fitness (ln)” value (30 °C) was -2.55 ± 0.24 and the “self-splicing fitness (ln)” value (37 °C) is -2.39 ± 0.35.

In the case of ACAUAGCAAUAUUACGAUCC, the “self-splicing fitness (ln)” value is, setting by setting: (30 °C) -1.77 ± 0.15; (37 °C) -0.941 ± 0.16.

Take AGCAAGCAAUAUUACGCCCU: the “self-splicing fitness (ln)” value is -2.12 ± 0.26 (30 °C) and -0.679 ± 0.36 (37 °C).

Turning to CUCGAGCAAUAUUACGAACA, the “self-splicing fitness (ln)” value runs as follows: (30 °C) -1.56 ± 0.41; (37 °C) -2.03 ± 0.49.

As for GCUUAGCAAUAUUACGAGUU, the “self-splicing fitness (ln)” value (30 °C) is -1.62 ± 0.091 and the “self-splicing fitness (ln)” value (37 °C) was -0.362 ± 0.11.

Turning to UAUAAGCAAUAUUACGUAGA, the “self-splicing fitness (ln)” value was -1.89 ± 0.11 (30 °C) and -0.959 ± 0.13 (37 °C).

Regarding UGCGAGCAAUAUUACGUUGA, the “self-splicing fitness (ln)” value is -3.05 ± 0.27 (30 °C) and -3.53 ± 0.32 (37 °C).

In the case of GAUGAGCAAUAUUACGCAAG, the “self-splicing fitness (ln)” value reads like this: (30 °C) -2.46 ± 0.38; (37 °C) -1.51 ± 0.36.

As for ACAAAGCAAUAUUACGAGAU, the “self-splicing fitness (ln)” value was -4 ± 0.19 (30 °C) and -1.55 ± 0.097 (37 °C).

For GAAUAGCAAUAUUACGCGGA, the “self-splicing fitness (ln)” value is -1.54 ± 0.15 (30 °C) and -1.43 ± 0.15 (37 °C).

As to AUUGAGCAAUAUUACGCGAU, the “self-splicing fitness (ln)” value is, setting by setting: (30 °C) -3.68 ± 0.32; (37 °C) -2.33 ± 0.34.

For the sequence UGCGAGCAAUAUUACGGCCA, the “self-splicing fitness (ln)” value is, setting by setting: (30 °C) -0.517 ± 0.13; (37 °C) 0.5 ± 0.15.

Regarding CUAGAGCAAUAUUACGACCC, the “self-splicing fitness (ln)” value (30 °C) is -1.62 ± 0.38.
